Source: US20240309090A1, “MODULATION OF ANDROGEN SIGNALING TO INNATE IMMUNE KILLING OF PROSTATE CANCER” (Brown University, priority 2023, published 2024)

What was measured:
PC3 cell line = experiment: Flow cytometry of HLA-E surface expression on AR-negative PC3; assay type: cell-based; settings: for surface expression of HLA-E: PC3, DHT 30 nM, vorinostat 0.3 μM, panobinostat 3 nM, 48 h
From the text: (§1) To evaluate the modulation of the androgen receptor and tumor HLA-E expression, we astably transduced AR negative cell lines PC3 and DU145 with an Androgen Response Element (ARE) GFP reporter (FIG. 16H). […] Using AR+ constructed cell lines, PC3 and DU145, we sought to determine the dependence of HLA-E expression and possible modulation by AR. […] Although potential therapies targeting immune enhancement are being explored, the expression of exhaustion markers such as PD-1, NKG2A, and potential engaging ligands that diminish their cytotoxic function limits their application. Exploring these factors with new combination approaches, such as ARi and anti-NKG2A, and understanding the modulation of its targets upon treatment is key in overcoming immune-resistant scenarios, especially in prostate cancer.
Experiments were conducted with noncytotoxic doses of vorinostat (0.3 μM) and panobinostat (3 nM).
(§2) PCa cells were plated at a density of 3×10^5 cells per well of a 6-well plate and adhered overnight. […] After treatment, cells were trypsinized, stained, and incubated (Cell Staining Buffer SouthernBiotech #0225-01S) with the corresponding antibody for 45-60 min at 4° C. Viability dye was added with each run. NK-92 cells and patient-derived cells were stained similarly. Markers used for experiments included: Thermofisher HLA-E Monoclonal Antibody (3D12HLA-E), Alexa Fluor™ 488, eBioscience™, CD274 (PD-L1, B7-H1) Monoclonal Antibody (MIH1), eFluor™ 450, eBioscience™, Cell Signaling PD-1 (D4W2J) XPR Rabbit mAb, SYTOX™ Orange Dead Cell Stain, for flow cytometry, BioLegend APC anti-human CD159a (NKG2A) Antibody #375108, BioLegend APC anti-human CD69 Antibody #310909, BioLegend Alexa Fluor® 647 anti-human CD137 (4-1BB) [4B4-1] #309823. For staining of the patient-derived PBMCs and subsequent NK cell characterization, the following antibodies were used: BioLegend Anti-Perforin Mouse Monoclonal Antibody (PerCP Cy5.50, clone: dG9) #308113, BioLegend Anti-Granzyme B Mouse Monoclonal Antibody (FITC, clone: GB11) #515403, BioLegend Anti-CD56 Mouse Monoclonal Antibody (Alexa Fluor® 700, clone: 5.1H1) #362521, and BioLegend (PE anti-human CD45 Antibody) #304008.

DU145 = experiment: Flow cytometry of HLA-E surface expression on non-AR-transduced DU145; assay type: cell-based
From the text: as §1
PCa cells were plated at a density of 3×10^5 cells per well of a 6-well plate and adhered overnight. […] After treatment, cells were trypsinized, stained, and incubated (Cell Staining Buffer SouthernBiotech #0225-01S) with the corresponding antibody for 45-60 min at 4° C. Viability dye was added with each run. NK-92 cells and patient-derived cells were stained similarly. […]

NK cells = experiment: Flow cytometry of NKG2A and PD-1 surface expression on NK cells; assay type: cell-based
Method: as §2
Methods: PCa cell lines (LNCaP, 22Rv1 [ARv7 mutation], DU145[AR-], PC3 [AR-]) were cocultured with NK-92 cells and treated with ARi (enzalutamide [enza] and darolutamide [daro]) or in combination with anti-NKG2A antibody monalizumab. Immune cell-mediated tumor cell killing assays and multiplexed cytokine profiling were performed. NKc expression of NKG2A and PCa cells expression of HLA-E were investigated by flow cytometry. The AR-negative cell lines (PC3 and DU145) were stably transduced with a functional AR pathway to evaluate the modulation of HLA-E by AR. The activation status of peripheral blood NKc isolated from patients with PCa before and post-initiation of androgen deprivation therapy (ADT) was investigated by flow cytometry.

LNCaP cells = experiment: Flow cytometry of HLA-E / PD-L1 surface expression on LNCaP; assay type: cell-based; settings: LNCaP, DHT 30 nM, vorinostat 0.3 μM, panobinostat 3 nM, 48 h
Method: The effect of ARi on the NKG2A ligand, HLA-E, was investigated by flow cytometry on PCa cells treated with enza and daro.
as §2
The effect of androgen pathway inhibitors in the expression of HLA-E, a negative and key negative modulator of NK cell function, was also performed using Flow Cytometry. PD-L1 expression levels were also measured. In advance, The NK cell immune checkpoint inhibitor monalizumab (targeting NKG2A and its ligand, HLA-E) was also combined with ARi.

LNCaP [1] = experiment: Co-culture of LNCaP with NK-92 cells, immune-mediated tumor cell killing; assay type: cell-based; settings: LNCaP + NK-92 1:1, enzalutamide 10 μM, FIG. 15A
Method: (§3) They were co-treated with enzalutamide ([…]) or darolutamide (20 μM) for 48 h. Doses of AR inhibitors (ARi) used in the co-culture experiments were based on previous IC50 experiments. […] The immune-mediated effect of NK-92 on the PCa cell lines in the presence of enzalutamide (immune enhancement death) was normalized to baseline immune and tumor cell killing in each condition [(tumor cells+immune cells)-tumor baseline death=baseline immune death]. […] Cytokine analysis was performed to investigate the activation phenotype of NK cells when treated with ARi.
(§4) Prostate cancer cell lines were dyed with the blue CMAC live-cell dye (Thermo Fisher Scientific #C2110, per manufacturer protocol). Blue-fluorescent cancer cells were plated at a density of 10,000 cells per well of a 48-well plate. NK-92 cells were dyed with green CMFDA (Cayman Chemical Company #19583, per manufacturer protocol). Green-fluorescent NK-92 cells were added to the blue-fluorescent cancer cells at a 1:1 ratio. Enzalutamide (10 μM), darolutamide (20 μM), and 1 μM ethidium homodimer (EthD-1) were added at the same time as the NK cells. After 24 hours of co-culture, images of live cancer cells, live NK cells, and dead cells were taken using a fluorescent microscope. The co-culture experiments were run with internal control conditions and as a single treatment. Normalization was performed after analysis to take baseline death conditions into each experiment run. […] Cell adhered over 24 h, and when patient-derived NK cells were added, a control well was trypsinized, and cells resuspended and counted to adjust a 1:1 ratio before treatment addition. […]
(§5) Live cancer cells, NK cells, and dead cells were quantified using FIJI (Fiji Is Just ImageJ) software for images derived from fluorescent co-culture images. Images from the ImageXpress system were quantified using MetaXpress cytoplasmic/nuclear staining software. The percent of dead tumor cells in each well was quantified, and this percentage was normalized by subtracting baseline death from cancer cell-only wells, NK cell-only wells, or both.

22Rv1 = experiment: Co-culture of 22Rv1 with NK-92 cells, immune-mediated tumor cell killing; assay type: cell-based; settings: 22Rv1 + NK-92 1:1, enzalutamide 10 μM, FIG. 15B
Method: as §3, §4, §5

[2] = test system: PC cell lines (LNCap, 22Rv1, DU145, PC3); experiment: Co-cultures of PC cell lines with NK cells (1:1), immune-mediated PC killing; assay type: cell-based
Method: (§6) Prostate cancer cell lines were dyed with the blue CMAC live-cell dye (Thermo Fisher Scientific #C2110, per manufacturer protocol). Blue-fluorescent cancer cells were plated at a density of 10,000 cells per well of a 48-well plate. NK-92 cells were dyed with green CMFDA (Cayman Chemical Company #19583, per manufacturer protocol). Green-fluorescent NK-92 cells were added to the blue-fluorescent cancer cells at a 1:1 ratio. Enzalutamide (10 μM), darolutamide (20 μM), and 1 μM ethidium homodimer (EthD-1) were added at the same time as the NK cells. After 24 hours of co-culture, images of live cancer cells, live NK cells, and dead cells were taken using a fluorescent microscope. The co-culture experiments were run with internal control conditions and as a single treatment. Normalization was performed after analysis to take baseline death conditions into each experiment run. To optimize the high output of these experiments, a subset of co-cultures were performed using the ImageXpress® Micro Confocal High-Content Imaging. This analysis maintained the experiment conditions, drug concentrations, and the dyeing process. When GFP-labeled tumor cells were used for culture assays, they were added in a 1:1 ratio. Cell adhered over 24 h, and when patient-derived NK cells were added, a control well was trypsinized, and cells resuspended and counted to adjust a 1:1 ratio before treatment addition. The experiments with blocking antibodies were performed using the ImageXpress system. TRAIL blocking ab was purchased from Santa Cruz TRAIL Antibody (RIK-2): sc-56246, and IFN gamma blocking Monoclonal Antibody (NIB42, #6-7318-81) was purchased from Thermo Fisher. The blocking mAb was added when NK cells were combined with tumor cells.
Live cancer cells, NK cells, and dead cells were quantified using FIJI (Fiji Is Just ImageJ) software for images derived from fluorescent co-culture images. Images from the ImageXpress system were quantified using MetaXpress cytoplasmic/nuclear staining software. The percent of dead tumor cells in each well was quantified, and this percentage was normalized by subtracting baseline death from cancer cell-only wells, NK cell-only wells, or both. A two-way ANOVA was used to calculate the interaction effect between drug treatment and NK cells.
In groups with a significant interaction effect, data was further normalized in the cancer cell+NK cells+drug treatment well by subtracting out death in the cancer cell+drug well. A one-way ANOVA and multiple comparison analysis with subsequent t-tests were used to calculate the statistical significance of the difference between this group and the cancer cell+NK cell well. GraphPad Prism Version 9.5.1 was used for statistical analysis.
We conducted cell viability assays to investigate the effect of Enza and Daro on PC cells (LNCap, 22Rv1 [ARv7 mutation], DU145, PC3 [AR-]) and NK-92 cells. We performed co-culture experiments with PC and NK cells in a 1:1 ratio and analyzed immune cell-mediated tumor cell killing (ImageXpress Confocal HT). Cytokine profiling (Luminex 200) of culture supernatants was performed following treatment with ARi−/+ and anti-IFN-γ antibodies. In vivo studies were performed in NCr Nude mice harboring subcutaneous PC tumors treated orally with Daro (50 mg/kg/bid) and Enza (30 mg/kg/bid) for 4 weeks.
We performed ATP-based (CellTiter-Glo) viability assays to investigate the effect of Enzalutamide and Darolutamide on PC cell lines (LNCap, 22Rv1 [ARv7 mutation], DU145, PC3 [AR-]) and NK-92 cells. We performed co-culture experiments with PC and NK cells at a 1:1 ratio throughout 4 h, 6 h, 12 h, 24 h, and 48 h periods. We analyzed immune cell-mediated tumor cell killing in the presence of Enza and Darolutamide (ImageXpress Confocal HT). Western Blotting was performed to evaluate different protein expression levels and their regulation related to sensitivity in mediating immune-mediated cell killing (apoptotic family). […]

LNCaP [3] = experiment: Co-culture of GFP-expressing LNCaP with patient-derived NK cells; assay type: cell-based, human
From the text: (§7) To validate an additive effect of ARi and monalizumab enhancing NK cell cytotoxicity, we performed a co-culture assay with GFP-labeled PCa cell lines (including ARi-sensitive LNCaP and ARi-resistant PC3) and patient-derived NK cells. The NK cells were negatively selected from whole blood from patients with metastatic prostate cancer before initiation of androgen deprivation therapy. The addition of enzalutamide or darolutamide enhanced the cytotoxicity of NK cells, and the combination of ARi with monalizumab potentiated immune killing (FIG. 15C-D).
as §6
(§8) NK cells were isolated from patients harboring metastatic castration-sensitive prostate cancer using the MojoSort™ Human NK Cell Isolation Kit (#480053). Patients signed informed consent for IRB-approved research protocol number 2055-13, allowing the collection of peripheral blood samples. […] The untouched NK cells (CD56+, CD3−) were collected, and the purity of isolation was determined by flow cytometry using anti-CD56 (BioLegend 362503). […]

PC3 = experiment: Co-culture of GFP-expressing PC3 with patient-derived NK cells; assay type: cell-based, human
From the text: as §7, §6, §8

Molecule | surface expression of HLA-E (PC3 cell line) | HLA-E expression (PC3 cell line; non-AR-transduced PC3) [%] | HLA-E expression (DU145) [%] | surface expression of NKG2A (NK cells) | surface expression of PD-1 (NK cells; MFI) | expression of HLA-E upon DHT treatment with HDACi (LNCaP cells) | NK cell killing of PCa cells (immune enhancement) (LNCaP [1]) [%] | NK cell killing of PCa cells (immune enhancement) (22Rv1) [%] | immune-mediated NK cell killing of PCa cells (in words) ([2]; co-culture PCa + NK-92 cells) | ARi immune enhancement effect ([2]; co-cultures of PC cell lines and NK cells with Enzalutamide (API), [T] plus monalizumab) [%] | killing of PCa cells by patient-derived NK cells (in words) (LNCaP [3]; GFP LNCaP, 1:1, 24 h, monalizumab in combination with enza and daro) | median number of cells in co-culture (LNCaP [3]; LNCaP and NK cells, monalizumab added to darolutamide or enzalutamide, FIG. 3B) | killing of PCa cells by patient-derived NK cells (in words) (PC3; GFP PC3, 1:1, 24 h, monalizumab in combination with enza and daro) | median number of cells in co-culture (PC3; PC3 and NK cells, monalizumab added to darolutamide or enzalutamide, FIG. 3A)
C[C@]12CCC(=O)C[C@@H]1CC[C@@H]1[C@@H]2CC[C@]2(C)[C@@H](O)CC[C@@H]12 [DHT, dihydrotestosterone] | did not alter | 11.28 | 1.84 | reversed | reversed |  |  |  |  |  |  |  |  | 
O=C(CCCCCCC(=O)Nc1ccccc1)NO [vorinostat] | did not change |  |  |  |  | did not change significantly |  |  |  |  |  |  |  | 
monalizumab (antibody, chains of the INN, looked up, V domains shown) VH: QVQLVQSGAEVKKPGASVKVSCKASGYTFTSYWMNWVRQAPGQGLEWMGRIDPYDSETHYAQKLQGRVTMTTDTSTSTAYMELRSLRSDDTAVYYCARGGYDFDVGTLYWFFDVWGQGTTVTVSS VL: DIQMTQSPSSLSASVGDRVTITCRASENIYSYLAWYQQKPGKAPKLLIYNAKTLAEGVPSRFSGSGSGTDFTLTISSLQPEDFATYYCQHHYGTPRTFGGGTKVEIK |  |  |  |  |  |  | 19.89 | 18.29 | did not enhance | 43.92 | potentiated | decreases | potentiated | decreases
